Substrate in the data set: O=[N+]([O-])c1ccccc1O[C@@H]1O[C@H](CO)[C@H](O)[C@H](O)[C@H]1O
Nature of the data set: o-nitrophenol release, Lineweaver-Burk. Type of data set: biochemical, Kluyveromyces lactis. To be noted: crude extract (30 μg protein); buffer Z with 1.6 mM MgSO4; ONPG 2-12 mM.

As a reminder, the Km is the substrate concentration at which the rate is half of its maximum.

B1: native K. lactis β-galactosidase (pSPGK1-LAC4) (Kluyveromyces lactis NRRL Y-1140) (protein)
chain: MSCLIPENLRNPKKVHENRLPTRAYYYDQDIFESLNGPWAFALFDAPLDAPDAKNLDWETAKKWSTISVPSHWELQEDWKYGKPIYTNVQYPIPIDIPNPPTVNPTGVYARTFELDSKSIESFEHRLRFEGVDNCYELYVNGQYVGFNKGSRNGAEFDIQKYVSEGENLVVVKVFKWSDSTYIEDQDQWWLSGIYRDVSLLKLPKKAHIEDVRVTTTFVDSQYQDAELSVKVDVQGSSYDHINFTLYEPEDGSKVYDASSLLNEENGNTTFSTKEFISFSTKKNEETAFKINVKAPEHWTAENPTLYKYQLDLIGSDGSVIQSIKHHVGFRQVELKDGNITVNGKDILFRGVNRHDHHPRFGRAVPLDFVVRDLILMKKFNINAVRNSHYPNHPKVYDLFDKLGFWVIDEADLETHGVQEPFNRHTNLEAEYPDTKNKLYDVNAHYLSDNPEYEVAYLDRASQLVLRDVNHPSIIIWSLGNEACYGRNHKAMYKLIKQLDPTRLVHYEGDLNALSADIFSFMYPTFEIMERWRKNHTDENGKFEKPLILCEYGHAMGNGPGSLKEYQELFYKEKFYQGGFIWEWANHGIEFEDVSTADGKLHKAYAYGGDFKEEVHDGVFIMDGLCNSEHNPTPGLVEYKKVIEPVHIKIAHGSVTITNKHDFITTDHLLFIDKDTGKTIDVPSLKPEESVTIPSDTTYVVAVLKDDAGVLKAGHEIAWGQAELPLKVPDFVTETAEKAAKINDGKRYVSVESSGLHFILDKLLGKIESLKVKGKEISSKFEGSSITFWRPPTNNDEPRDFKNWKKYNIDLMKQNIHGVSVEKGSNGSLAVVTVNSRISPVVFYYGFETVQKYTIFANKINLNTSMKLTGEYQPPDFPRVGYEFWLGDSYESFEWLGRGPGESYPDKKESQRFGLYDSKDVEEFVYDYPQENGNHTDTHFLNIKFEGAGKLSIFQKEKPFNFKISDEYGVDEAAHACDVKRYGRHYLRLDHAIHGVGSEACGPAVLDQYRLKAQDFNFEFDLAFE
notes: expressed in K. lactis MW190-9B (lac4-8); crude cell-free extract
As for B1, the Michaelis constant (Km) is 1500 µM.

(Values after paper PMC1764428, “Secretion and properties of a hybrid Kluyveromyces lactis-Aspergillus niger β-galactosidase” (Microbial Cell Factories, 2006).)
